This passage reports Kd results from PMC4305340.

Like-named read-outs stand apart in the source and are kept apart here.

What all share (assay): fluorescence polarization
In one series the target is PrfA(C/A)4 (Listeria monocytogenes, UniProt P22262 1-237, C38A;C144A;C205A;C229A).
In series [1] the target is T1, PrfA wild type (Listeria monocytogenes, UniProt P22262 1-237).
Series [2] deals with T1, PrfA wild type. This is another data set of the same source.

B1: Phly PrfA box (dsDNA)
DNA 1: TGAGGCATTAACATTTGTTAACGACGAT
DNA 2: ATCGTCGTTAACAAATGTTAATGCCTCA
The Kd is the free concentration of one partner at which half of the binding sites on the other are occupied at equilibrium, for simple one-to-one binding. High values mean lower affinity, low ones higher affinity. B1: the dissociation constant Kd in the series with PrfA(C/A)4 came out at 32.8 nM; with PrfA wild type [1], 34.2 nM.

B2: PactA PrfA box (dsDNA)
DNA 1: AACTGATTAACAAATGTTAGAGAAAACT
DNA 2: AGTTTTCTCTAACATTTGTTAATCAGTT
As for B2, the Kd with PrfA(C/A)4 stood at 125 nM; in the series with PrfA wild type [2], 96.4 nM.
